The text below walks through data of patent US20050186203A1 (published 2005).

Test [1] deals with T1, purified full-length human IGF-I receptor (affinity purified); directly coated or biotinylated and captured on … (human, UniProt P08069 31-1367, biotinylated with PEO-maleimide-biotin reagent in the captured format).
T1 construct: mature; also called purified human IGF-I receptor; biotinylated human IGF-I receptor
Kind of test: ELISA binding competition with murine EM164 on full-length IGF-I receptor. The protocol:
(§1) After equilibration, the bound humanized antibody was detected using a goat-anti-human-Fab′₂-antibody-horseradish peroxidase conjugate. Plots of ([bound murine Ab]/[bound humanized Ab]) vs ([murine Ab]/[humanized Ab]), which theoretically yield a straight line with slope=(K_{d humanized Ab}/K_{d murine Ab}), were used to determine the relative affinities of the humanized and murine antibodies.
(§2) An Immulon-2HB ELISA plate was coated with 100 μL of 5 μg/mL streptavidin per well in carbonate buffer at ambient temperature for 7 h. […] The wells were then washed with TBS-T buffer and incubated with goat-anti-human-Fab′₂-antibody-horseradish peroxidase conjugate for 1 h (100 μL; 1 μg/mL in blocking buffer), followed by washes and detection using ABTS/H₂O₂ substrate at 405 nm.
Background: In an ELISA, binding on a coated surface is turned into a signal by an enzyme label.

For test [2], the target named is IGF-I receptor of 3T3 cells (mouse) (mouse, UniProt Q60751 31-1373). Briefly: immunoprecipitation from cell lysate, Western blot.
Test [3] deals with T2, human insulin receptor, overexpressed on 3T3-like cells of IGF-I receptor deficient mice (human, UniProt P06213 28-1382).
T2 construct: whole, on cells; also called insulin receptor overexpressing cells
Kind of test: FACS on cells overexpressing human insulin receptor. The protocol: The cells were pelleted by centrifugation and washed with cold FACS buffer by gentle flicking, followed by incubation with goat-anti-mouse-IgG-antibody-FITC conjugate (100 μL; 10 μg/mL in FACS buffer) on ice for 1 h. The cells were pelleted, washed, and resuspended in 120 μL of 1% formaldehyde solution in PBS. The plate was analyzed using a FACSCalibur reader (BD Biosciences).

Test [4] concerns the target T1, purified full-length human IGF-I …. Briefly: ELISA binding competition with murine EM164 on captured biotinylated IGF-I receptor. The protocol: as §1, §2

Where a chain is given by its changes, count along the chain named.

Chain of IGF-I receptor of 3T3 cells (mouse) (Q60751 31-1373 limits assumed): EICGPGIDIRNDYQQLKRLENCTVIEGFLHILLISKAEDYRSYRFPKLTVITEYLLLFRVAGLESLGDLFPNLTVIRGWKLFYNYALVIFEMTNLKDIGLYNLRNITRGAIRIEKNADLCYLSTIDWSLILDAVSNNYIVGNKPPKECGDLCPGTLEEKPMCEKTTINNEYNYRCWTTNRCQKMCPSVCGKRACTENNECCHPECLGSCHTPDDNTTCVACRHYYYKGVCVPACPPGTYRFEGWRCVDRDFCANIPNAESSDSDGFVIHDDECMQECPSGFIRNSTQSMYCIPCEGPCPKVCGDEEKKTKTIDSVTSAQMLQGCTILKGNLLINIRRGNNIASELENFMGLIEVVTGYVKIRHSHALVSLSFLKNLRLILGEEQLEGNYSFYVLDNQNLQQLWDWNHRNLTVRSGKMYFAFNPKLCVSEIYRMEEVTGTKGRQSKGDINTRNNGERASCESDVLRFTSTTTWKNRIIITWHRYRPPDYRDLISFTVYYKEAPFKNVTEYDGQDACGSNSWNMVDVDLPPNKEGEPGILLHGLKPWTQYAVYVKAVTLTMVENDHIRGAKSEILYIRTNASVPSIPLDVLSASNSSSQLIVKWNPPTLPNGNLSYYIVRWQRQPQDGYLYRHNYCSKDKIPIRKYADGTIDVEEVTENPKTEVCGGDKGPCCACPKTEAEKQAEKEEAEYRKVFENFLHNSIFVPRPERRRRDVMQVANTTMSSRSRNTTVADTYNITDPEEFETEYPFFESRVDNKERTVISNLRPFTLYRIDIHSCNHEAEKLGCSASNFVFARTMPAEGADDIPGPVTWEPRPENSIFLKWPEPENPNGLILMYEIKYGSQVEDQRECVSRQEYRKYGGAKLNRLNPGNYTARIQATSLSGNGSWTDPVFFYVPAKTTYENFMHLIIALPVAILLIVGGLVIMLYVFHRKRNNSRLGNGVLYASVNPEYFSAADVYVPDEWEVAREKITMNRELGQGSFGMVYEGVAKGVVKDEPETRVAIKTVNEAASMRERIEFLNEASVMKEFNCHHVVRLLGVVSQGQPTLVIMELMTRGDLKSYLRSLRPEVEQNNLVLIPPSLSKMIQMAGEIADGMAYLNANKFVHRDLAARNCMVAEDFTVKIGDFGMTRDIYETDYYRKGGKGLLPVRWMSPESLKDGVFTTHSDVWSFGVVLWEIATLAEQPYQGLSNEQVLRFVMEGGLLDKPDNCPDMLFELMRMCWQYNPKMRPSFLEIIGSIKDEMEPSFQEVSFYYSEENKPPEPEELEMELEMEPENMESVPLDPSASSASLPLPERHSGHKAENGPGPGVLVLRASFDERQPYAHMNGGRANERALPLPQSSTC

B1: humanized EM164 antibody version 1.1 (antibody, V domains shown)
VH: QVQLVQSGAEVVKPGASVKLSCKASGYTFTSYWMHWVKQRPGQGLEWIGEINPSNGRTNYNQKFQGKATLTVDKSSSTAYMQLSSLTSEDSAVYYFARGRPDYYGSSKWYFDVWGQGTTVTVS
VL: DVLMTQTPLSLPVSLGDPASISCRSSQSIVHSNVNTYLEWYLQKPGQSPKLLIYKVSNRFSGVPDRFSGSGAGTDFTLRISRVEAEDLGIYYCFQGSHVPPTFGGGTKLEIKR
notes: Expressed transiently in 293T cells; also called huEM164 V1.1; v1.1
Turning to B1, in test [1], the binding result is “binds”.

B2: murine anti-IGF-I receptor antibody EM164 (antibody, V domains shown)
VH: B1 VH with V5Q, V11L, Q62E, Q65K, G66R, Q116A
VL: B1 VL with P18Q, A72S
notes: also called EM164 antibody; muEM164
As to B2, the binding result in test [2] is recorded as “no binding”; in test [3], “no binding (tested: 50-100 nM)”.

B3: humanized EM164 antibody version 1.0 (antibody, V domains shown)
VH: B1 VH
VL: B1 VL with L3V, K50R
notes: Expressed transiently in 293T cells; also called huEM164 V1.0; huEM164 v1.0
For the molecule B3, the binding result in test [4] is given as “binds”.

B4: humanized EM164 antibody version 1.2 (antibody, V domains shown)
VH: B1 VH
VL: B1 VL with K50R
notes: Expressed transiently in 293T cells; also called huEM164 V1.2; v1.2
For the molecule B4, in test [1], the binding result is listed as “binds”.
